Measured values taken from patent US12264201B2, “Bispecific antibody targeting IL-1R1 and NLPR3” (University of Ulster, priority 2018, dated 2025).

Molecular target: NLRP3 inflammasome (Homo sapiens, UniProt Q96P20)
Experiment: In vitro assay of NLRP3 assembly (hybridoma clones)
Conditions: compared among the hybridoma clones

Sequence of NLRP3 inflammasome (Q96P20 whole entry): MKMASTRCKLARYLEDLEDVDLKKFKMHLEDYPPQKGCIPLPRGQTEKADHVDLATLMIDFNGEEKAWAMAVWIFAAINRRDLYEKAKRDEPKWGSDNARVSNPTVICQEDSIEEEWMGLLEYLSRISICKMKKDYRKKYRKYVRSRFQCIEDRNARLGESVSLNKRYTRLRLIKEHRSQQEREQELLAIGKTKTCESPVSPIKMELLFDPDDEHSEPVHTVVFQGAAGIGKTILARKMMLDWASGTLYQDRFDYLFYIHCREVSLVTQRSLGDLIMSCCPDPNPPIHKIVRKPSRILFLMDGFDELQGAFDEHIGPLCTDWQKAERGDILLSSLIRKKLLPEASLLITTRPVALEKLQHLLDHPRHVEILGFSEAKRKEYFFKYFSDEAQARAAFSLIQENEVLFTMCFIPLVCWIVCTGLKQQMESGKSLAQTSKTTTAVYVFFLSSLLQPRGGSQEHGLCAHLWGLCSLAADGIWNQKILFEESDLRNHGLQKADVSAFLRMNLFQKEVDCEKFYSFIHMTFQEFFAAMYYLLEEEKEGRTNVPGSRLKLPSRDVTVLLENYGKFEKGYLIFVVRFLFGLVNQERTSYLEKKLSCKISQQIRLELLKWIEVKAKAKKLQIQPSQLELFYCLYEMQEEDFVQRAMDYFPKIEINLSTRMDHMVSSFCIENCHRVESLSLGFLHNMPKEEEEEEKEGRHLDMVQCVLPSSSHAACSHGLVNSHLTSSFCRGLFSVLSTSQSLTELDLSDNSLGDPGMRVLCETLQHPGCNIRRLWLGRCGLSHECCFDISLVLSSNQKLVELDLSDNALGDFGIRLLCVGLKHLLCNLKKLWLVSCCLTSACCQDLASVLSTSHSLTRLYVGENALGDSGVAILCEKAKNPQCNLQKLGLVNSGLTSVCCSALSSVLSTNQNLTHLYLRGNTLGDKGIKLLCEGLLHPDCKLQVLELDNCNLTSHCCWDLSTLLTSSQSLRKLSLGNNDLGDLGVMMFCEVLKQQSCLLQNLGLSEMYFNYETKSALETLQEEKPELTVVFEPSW

B1: F226 7A7-1E1-2D5: anti-NLRP3 monoclonal antibody from hybridoma clone, sequenced and used in the bispecific; VH SEQ ID NO: 36, VL SEQ ID NO: 43 (antibody)
VH: MDFGLSWVFLVLVLKGVQCEVQLVESGGGLVKPGGSLKLSCAASGFTFSDYYMYWVRQTPEKRLEWVATISDGGTYTYYPDSVKGRFTISRDNAKNNLYLQMNSLKSEDTAMYYCARGWVSTMVKLLSSFPYWGQGTLVTVSAAKTTPPSVYPLA
VL: MAWISLLFSLLALSSGAISQAVVTQESALTTSPGETVTLTCRSSTGAVTTSNYANWVQEKPDHLFTGLIGGTNNRAPGVPARFSGSLIGDKAALTITGAQTEDEAIYFCALWYSNYWVFGGGTKLTVLGQPKSSPSVTLFPPSTEKLSL
In the case of B1, the “preventing NLRP3 assembly” value is reported as “most active”.
